{"source": "paper PMC10847126", "key": {"[1]": {"biological_target": "RGA5-HMA (labelled, MST) (rice) (UniProt F7J0N2)", "test": "MST; […]; 20 mM PBS, 150 mM NaCl, 0.05% Tween-20, pH 7.4; […]"}, "[2]": {"biological_target": "RGA5-HMA5 (recombinant, MST and HDX-MS) (rice) (UniProt F7J0N2)", "test": "MST; […]; 20 mM PBS, 150 mM NaCl, 0.05% Tween-20, pH 7.4; […]"}}, "data": [{"substance": "AVR-Pia (recombinant, MST) (from UniProt B9WZW9) (natural protein; other documents disagree on this pair)", "values": [{"measurement": "Kd", "setting": "[1]", "result": 35, "unit": "µM"}]}, {"substance": "AVR-PikD (recombinant, MST and HDX-MS) (natural protein)", "values": [{"measurement": "Kd", "setting": "[2]", "result": 12, "unit": "µM"}]}]}
